Laboratory results taken from US20070218064A1 (published 2007).
Positions count from the first letter of the chain named. Blank lines part the entries; values can stand above or below the binder they belong to.

Target: T1, recombinant human IL-23 (hrIL-23), produced at Centocor (human, UniProt P29460 23-328)
T1 sequence 1: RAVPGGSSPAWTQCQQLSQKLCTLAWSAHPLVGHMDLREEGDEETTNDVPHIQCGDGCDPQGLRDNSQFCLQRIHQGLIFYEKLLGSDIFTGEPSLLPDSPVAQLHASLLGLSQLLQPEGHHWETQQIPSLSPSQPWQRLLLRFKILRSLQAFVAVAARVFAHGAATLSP
T1 sequence 2: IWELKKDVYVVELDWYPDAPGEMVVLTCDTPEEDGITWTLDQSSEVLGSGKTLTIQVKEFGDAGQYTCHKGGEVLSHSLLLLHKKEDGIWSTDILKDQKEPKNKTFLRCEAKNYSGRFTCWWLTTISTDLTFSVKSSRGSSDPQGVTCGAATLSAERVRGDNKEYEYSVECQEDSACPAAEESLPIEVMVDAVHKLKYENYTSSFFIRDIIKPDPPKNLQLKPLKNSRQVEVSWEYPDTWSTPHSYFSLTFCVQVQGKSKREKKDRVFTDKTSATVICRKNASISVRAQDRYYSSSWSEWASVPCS
Assay: cell-based or functional assay

B1: mAb MOR05042 (antibody, IgG1, V domains shown)
VH: QVELVQSGAEVKKPGESLKISCKGSGYSFSNYWIGWVRQMPGKGLEWMGIIPSTYSPSFQGQVTISADKSISTAYLQWSSLKASDTAMYYCARWYYKPFDVWGQGTLVTVSS
VL: DIVLTQPPSVSGAPGQRVTISCTGSSSNIGSGYDVHWYQQLPGTAPKLLIYGNSKRPSGVPDRFSGSKSGTSASLAITGLQSEDEADYYCSSWTPSSVVFGGGTKLTVL
Inhibition of IL-17 production, IC50: 0.00127 µg/mL

B4: mAb MOR05044 (antibody, IgG1, V domains shown)
VH: QVELVQSGAEVKKPGESLKISCKGSGYSFSNYWIGWVRQMPGKGLEWMGIIPSSTYSPSFQGQVTISADKSISTAYLQWSSLKASDTAMYYCARWYYKPFDVWGQGTLVTVSS
VL: B1 VL
Inhibition of IL-17 production, IC50: 0.0141 µg/mL

B5: mAb MOR05041 (antibody, IgG1, V domains shown)
VH: B1 VH
VL: B1 VL
Inhibition of IL-17 production, IC50: 0.00301 µg/mL

B6: mAb MOR05043 (antibody, IgG1, V domains shown)
VH: QVELVQSGAEVKKPGESLKISCKGSGYSFSNYWIGWVRQMPGKGLEWMGIPSTYSPSFQGQVTISADKSISTAYLQWSSLKASDTAMYYCARWYYKPFDVWGQGTLVTVSS
VL: B1 VL
Inhibition of IL-17 production, IC50: 0.0144 µg/mL

B7: mAb MOR05029 (antibody, IgG1, V domains shown)
VH: QVELVQSGAEVKKPGSSVKVSCKASGGTFSSNYISWVRQAPGQGLEWMGGIIPIFGHANYAQKFQGRVTITADESTSTAYMELSSLRSEDTAVYYCARSKKGMYGGWTYPLMMFDLWGQGTLVTVSS
VL: DIVLTQSPATLSLSPGERATLSCRASQSVSSNYLAWYQQKPGQAPRLLIYYASRRATGVPARFSGSGSGTDFTLTISSLEPEDFAYYCQQTFGQGTKVEIK
Inhibition of IL-17 production, IC50: 0.0491 µg/mL

B8: mAb MOR05030 (antibody, IgG1, V domains shown)
VH: B7 VH
VL: DIVLTQSPATLSLSPGERATLSCRASQSVSSNYLAWYQQKPGQAPRLLIYYASRRATGVPARFSGSGSGTDFTLTISSLEPEDFAYYCQQPFTFGQGTKVEIK
Inhibition of IL-17 production, IC50: 0.0646 µg/mL

B9: mAb MOR05032 (antibody, IgG1, V domains shown)
VH: B7 VH
VL: DIVLTQSPATLSLSPGERATLSCRASQSVSSNYLAWYQQKPGQAPRLLIYYASRRATGVPARFSGSGSGTDFTLTISSLEPEDFAYYCQQNPFTFGQGTKVEIK
Inhibition of IL-17 production, IC50: 0.172 µg/mL

B10: mAb MOR05028 (antibody, IgG1, V domains shown)
VH: QVELVQSGAEVKKPGSSVKVSCKASGGTFSNYAISWVRQAPGQGLEWMGGIIPFGYAQKFQGRVTITADESTSTAYMELSSLRSEDTAVYYCARDIYAGMDVWGQGTLVTVSS
VL: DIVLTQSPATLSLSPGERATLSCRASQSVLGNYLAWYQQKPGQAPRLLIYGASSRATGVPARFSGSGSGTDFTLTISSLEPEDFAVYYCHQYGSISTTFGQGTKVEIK
Inhibition of IL-17 production, IC50: 0.104 µg/mL

B11: mAb MOR05038 (antibody, IgG1, V domains shown)
VH: QVELVQSGAEVKKPGSSVKVSCKASGGTFSSNYISWVRQAPGQGLEWMGIGYAQKFQGRVTITADESTSTAYMELSSLRSEDTAVYYCARSKKGMYGGWTYPLMMFDLWGQGTLVTVSS
VL: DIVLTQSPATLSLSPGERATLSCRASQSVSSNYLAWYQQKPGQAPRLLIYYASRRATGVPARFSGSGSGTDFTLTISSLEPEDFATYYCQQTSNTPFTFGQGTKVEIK
Inhibition of IL-17 production, IC50: 0.0282 µg/mL

B12: mAb MOR05040 (antibody, IgG1, V domains shown)
VH: QVELVQSGAEVKKPGSSVKVSCKASGGTFSSNYISWVRQAPGQGLEWMGAYAQKFQGRVTITADESTSTAYMELSSLRSEDTAVYYCARSKKGMYGGWTYPLMMFDLWGQGTLVTVSS
VL: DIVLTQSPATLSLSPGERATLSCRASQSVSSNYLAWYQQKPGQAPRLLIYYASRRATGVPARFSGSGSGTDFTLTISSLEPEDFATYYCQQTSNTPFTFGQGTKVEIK
Inhibition of IL-17 production, IC50: 0.00264 µg/mL

B13: mAb MOR05036 (antibody, IgG1, V domains shown)
VH: QVELVQSGAEVKKPGSSVKVSCKASGGTFSSNYISWVRQAPGQGLEWMGIPFGAYAQKFQGRVTITADESTSTAYMELSSLRSEDTAVYYCARSKKGMYGGWTYPLMMFDLWGQGTLVTVSS
VL: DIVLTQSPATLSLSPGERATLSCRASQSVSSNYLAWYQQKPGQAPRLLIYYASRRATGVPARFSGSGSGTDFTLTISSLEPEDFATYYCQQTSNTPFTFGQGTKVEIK
Inhibition of IL-17 production, IC50: 0.17 µg/mL

B23: mAb MOR05039 (antibody, IgG1, V domains shown)
VH: QVELVESGGGLVQPGGSLRLSCAASGFTFSSFGMSWVRQAPGKGLEWVSNITYYASVKGRFTISRDNSKNTLYLQMNSLRAEDTAVYYCARYWGTPYLMQFDNWGQGTLVTVSS
VL: DIALTQPASVSGSPGQSITISCTGTSSDVGGYNSVSWYQQHPGKAPKLMIYSVSSRPSGVSNRFSGSKSGNTASLTISGLQAEDEADYYCSSYDTNKPLVVFGGGTKLTVL
Inhibition of IL-17 production, IC50: 0.161 µg/mL

The remaining lines, values ahead:

Inhibition of IL-17 production, IC50: 0.0428 µg/mL
B2: mAb MOR05046 (antibody, IgG1, V domains shown)
VH: B4 VH with P52D, S53P
VL: B1 VL

Inhibition of IL-17 production, IC50: 0.0014 µg/mL
B3: mAb MOR05045 (antibody, IgG1, V domains shown)
VH: B1 VH
VL: B1 VL

Inhibition of IL-17 production, IC50: 0.00323 µg/mL
B14: mAb MOR05054 (antibody, IgG1, V domains shown)
VH: QVELVESGGGLVQPGGSLRLSCAASGFTFSSFGMSWVRQAPGKGLEWVSITYASVKGRFTISRDNSKNTLYLQMNSLRAEDTAVYYCARYWGTPYLMQFDNWGQGTLVTVSS
VL: B23 VL

Inhibition of IL-17 production, IC50: 0.00493 µg/mL
B15: mAb MOR05053 (antibody, IgG1, V domains shown)
VH: B23 VH
VL: B23 VL

Inhibition of IL-17 production, IC50: 0.0162 µg/mL
B16: mAb MOR05049 (antibody, IgG1, V domains shown)
VH: B14 VH
VL: B23 VL

Inhibition of IL-17 production, IC50: 0.0234 µg/mL
B17: mAb MOR05047 (antibody, IgG1, V domains shown)
VH: B23 VH with T52G, Y53T
VL: B23 VL

Inhibition of IL-17 production, IC50: 0.092 µg/mL
B18: mAb MOR05056 (antibody, IgG1, V domains shown)
VH: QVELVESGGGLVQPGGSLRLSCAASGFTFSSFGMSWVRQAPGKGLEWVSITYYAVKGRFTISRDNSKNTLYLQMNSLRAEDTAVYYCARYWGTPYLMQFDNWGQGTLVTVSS
VL: B23 VL

Inhibition of IL-17 production, IC50: 0.0663 µg/mL
B19: mAb MOR05051 (antibody, IgG1, V domains shown)
VH: B14 VH
VL: B23 VL

Inhibition of IL-17 production, IC50: 0.0916 µg/mL
B20: mAb MOR05055 (antibody, IgG1, V domains shown)
VH: B23 VH with T52G, Y53T
VL: B23 VL

Inhibition of IL-17 production, IC50: 0.0162 µg/mL
B21: mAb MOR05048 (antibody, IgG1, V domains shown)
VH: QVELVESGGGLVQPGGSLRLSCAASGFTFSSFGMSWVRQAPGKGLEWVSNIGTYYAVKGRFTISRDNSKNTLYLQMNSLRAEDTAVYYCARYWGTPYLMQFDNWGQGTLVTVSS
VL: B23 VL

Inhibition of IL-17 production, IC50: 0.0178 µg/mL
B22: mAb MOR05052 (antibody, IgG1, V domains shown)
VH: B14 VH
VL: B23 VL

Inhibition of IL-17 production, IC50: 0.0277 µg/mL
B24: mAb MOR05050 (antibody, IgG1, V domains shown)
VH: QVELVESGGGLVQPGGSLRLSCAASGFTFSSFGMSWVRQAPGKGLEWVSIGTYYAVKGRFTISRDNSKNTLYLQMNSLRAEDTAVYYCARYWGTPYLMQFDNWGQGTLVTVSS
VL: B23 VL

Inhibition of IL-17 production, IC50: 0.00285 µg/mL
B25: mAb MOR05058 (antibody, IgG1, V domains shown)
VH: QVELVQSGAEVKKPGESLKISCKGSGYSFSNYWIGWVRQMPGKGLEWMGIIDPSNSYTNYSPSFQGQVTISADKSISTAYLQWSSLKASDTAMYYCARWYYKPFDVWGQGTLVTVSS
VL: DIVLTQPPSVSGAPGQRVTISCTGSSSNIGSGYDVHWYQQLPGTAPKLLIYGNSKRPSGVPDRFSGSKSGTSASLAITGLQSEDEADYYCSSWTPVFGGGTKLTVL

Inhibition of IL-17 production, IC50: 0.0106 µg/mL
B26: mAb MOR05059 (antibody, IgG1, V domains shown)
VH: B25 VH
VL: B25 VL with S92W, W93T, T94S, P95V
